Laboratory results from patent US20220073922A1.

Key:
human VEGF-121 (human) [1] = target: human VEGF-121 (human) (UniProt P15692); assay: receptor competition assay: His-tagged human VEGF-121 (0.1 nM) on beads with 1 nM human VEGF Receptor 1 and varied Lucentis; bound receptor fraction by flow cytometry, dose-response inhibition fit; blocked partner: VEGF Receptor 1
human VEGF-121 (human) [2] = target: human VEGF-121 (human) (UniProt P15692); assay: receptor competition assay: His-tagged human VEGF-121 (0.1 nM) on beads with 1 nM human VEGF Receptor 2 and varied Lucentis; bound receptor fraction by flow cytometry, dose-response inhibition fit; blocked partner: VEGF Receptor 2
human VEGF-121 (human) [3] = target: human VEGF-121 (human) (UniProt P15692); assay: magnetic-bead partitioning binding assay read by flow cytometry; bound fraction against VEGF-121 concentration (1e-12 to about 1e-8 M), Langmuir one-site fit; how Lucentis was immobilised is not described

human VEGF-121 (human), sequence (P15692 other isoform, or with tags, fused parts or gaps limits assumed): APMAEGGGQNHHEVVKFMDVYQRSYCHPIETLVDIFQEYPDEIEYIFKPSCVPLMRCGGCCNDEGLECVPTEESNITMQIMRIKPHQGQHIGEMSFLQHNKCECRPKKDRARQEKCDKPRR

Substance: Lucentis® (Fab)
- IC50 (human VEGF-121 (human) [1]): 5.58 nM
- IC50 (human VEGF-121 (human) [2]): 2.36 nM
- Kd (human VEGF-121 (human) [3]): 1.69 nM
